Values of other authors as cited in paper PMC11335090.
pKd: −log10 of the molar value.

Molecular target: AXL (Homo sapiens) (UniProt P30530)
Sequence of UniProt P30530 (P30530 26-451): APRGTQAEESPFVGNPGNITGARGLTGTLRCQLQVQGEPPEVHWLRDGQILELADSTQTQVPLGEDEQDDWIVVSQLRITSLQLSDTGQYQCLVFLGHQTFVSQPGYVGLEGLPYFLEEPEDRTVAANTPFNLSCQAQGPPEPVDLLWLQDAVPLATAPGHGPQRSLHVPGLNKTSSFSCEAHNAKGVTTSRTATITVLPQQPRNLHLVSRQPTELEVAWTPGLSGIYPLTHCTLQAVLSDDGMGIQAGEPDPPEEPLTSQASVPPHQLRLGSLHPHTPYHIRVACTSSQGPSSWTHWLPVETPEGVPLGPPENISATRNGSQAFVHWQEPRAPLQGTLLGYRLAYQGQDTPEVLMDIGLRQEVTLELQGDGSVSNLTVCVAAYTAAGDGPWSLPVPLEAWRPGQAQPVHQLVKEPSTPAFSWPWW

For GAS6 (from UniProt Q14393), the pKd is given as 10.49.
